Data: article PMC12094035

Target: human γ-tubulin ring complex (γ-TuRC), the reconstituted complex without NEDD1 (human) (UniProt P23258)
Assay: cryo-EM structure; NEDD1-containing rec-γ-TuRC; free particles in micrographs of Aher et al. (2024), processed anew; consensus map 4.7 Å; model from AlphaFold 3 predictions fitted to the map and refined, side chains trimmed to β-carbons

With “neural precursor cell expressed, developmentally downregulated 1 (NEDD1), full length, in the reconstituted human γ-TuRC (from UniProt Q8NHV4 1-660) (natural protein)” the stoichiometry N was 4.
